{
  "source": "patent US20060030524A1",
  "about": "“Treatment of systemic lupus erythematosus by down-regulating the autoimmune response to autoantigens” (Yeda Research and Development Co. Ltd., priority 1998, published 2006)",
  "molecules": {"B1": {"name": "IDI-1: Ab2 monoclonal antibody anti-idiotypic to PAb-421 that binds DNA; VH and VL SEQ ID NOs:4 and 5 (antibody, listed as Mus sp., V domains shown)", "VH": "IPQVQLQQSGAELVRPGASVKLSCKASGYIFTSYWINWVRQRPGQGLEWIGNISPADSSTNYNQKFKDKATLTVDKSSTTAYMQLSRPTFEDSAVYYCAREEVRRRRDMDFWGQGTSVTVSSAKTTPPC", "VL": "RKLDIVITQDELSNPVTSGESVSISCRSRQSLLYKNGKTYLNWFLQRPGQSPQLLIYLMSIRASGVSDRFSGNGSGTDFTLEISRVRAEDVGVYYCQQLVEYPYTFGGGTKLEIKRADAAPT", "modifications": "BINDING (28)..(37) Complementary Determining Region; BINDING (27)..(42) Complementary Determining Region"}, "B2": {"name": "p53: recombinant mouse p53 protein expressed in E. coli (protein, UniProt P02340 1-390, looked up)", "Cellular tumor antigen p53": "MTAMEESQSDISLELPLSQETFSGLWKLLPPEDILPSPHCMDDLLLPQDVEEFFEGPSEALRVSGAPAAQDPVTETPGPVAPAPATPWPLSSFVPSQKTYQGNYGFHLGFLQSGTAKSVMCTYSPPLNKLFCQLAKTCPVQLWVSATPPAGSRVRAMAIYKKSQHMTEVVRRCPHHERCSDGDGLAPPQHLIRVEGNLYPEYLEDRQTFRHSVVVPYEPPEAGSEYTTIHYKYMCNSSCMGGMNRRPILTIITLEDSSGNLLGRDSFEVRVCACPGRDRRTEEENFRKKEVLCPELPPGSAKRALPTCTSASPPQKKKPLDGEYFTLKIRGRKRFEMFRELNEALELKDAHATEESGDSRAHSSYLKTKKGQSTSRHKKTMVKKVGPDSD"}, "B3": {"name": "IDI-2: Ab2 monoclonal antibody anti-idiotypic to PAb-421 that binds DNA; VH and VL SEQ ID NOs:6 and 7 (antibody, listed as Mus sp., V domains shown)", "VH": "QVQLQQSGPELVKPGASMKISCKASGYSFTGYTINWVKQSHGKNLEWIGLINPYNGGTCYNPKFKGKATLTVDKSSSTAYMELLSLTSEDSAVYYCARRVWLRRDGFYYAMDYWGQGTSVTVSSAKTTPP", "VL": "AVSLGQRATISCQASESVSFAGTSLMHWYQQKPGQPPKLLIYRASKLESGVPARFSGSGSESDFTLTIDPVEEDDAAMYYCMQSMEDPYTFGGGTKLEIKRADAAPTVSIFPPS", "modifications": "BINDING (26)..(35) Complementary Determining Region; BINDING (13)..(27) Complementary Determining Region"}},
  "key": {"[1]": {"tested_on": "MRL/MpJ-Fas^lpr mice", "test": "Prevention of spontaneous SLE in MRL/MpJ-Fas^lpr mice", "assay_type": "in vivo", "settings": "for heavy proteinuria, ^33 g/l (+++) at week 17 of age, mice affected/treated: peptides 100 μg i.p. in PBS at weeks 12, 18, 24, TCV 2×10^7 cells i.p. at 12 weeks; for death by week 33 of age, percent of mice / heavy proteinuria, ^33 g/l (+++) at week 17 of age, percent of mice: same treatments", "source_text": "Proteinuria was detected with Albustix strips (Bayer, Slough, UK). Leukocytes were counted from heparinized blood following 10-fold dilution in 1% acetic acid.\nThus, modulation of the p53 immune network should affect the course of SLE. A preliminary experiment was designed to see whether the spontaneous SLE development in MRL/MpJ-Fas^lpr mice might be influenced by administering to these mice peptides involved in the p53 network: the CDR peptides of the light and the heavy chain of PAb-421 depicted in FIG. 10 (administered as a mixture), or peptide 364-383 (residues 364-383 of SEQ ID NO:1) of the carboxy terminal domain of p53. The mice were intraperitoneally injected with 100 μg of the p53 peptide epitope of PAb-421 in PBS, or with 100 μg of peptides derived from variable region of PAb-421 in PBS at weeks 12,18, and 24 of age and followed for the development of SLE symptoms. […] Treatment with the peptides derived from the variable region of PAb-421 protected all five mice from development of proteinuria (0%; Table 2: 421: CDR). At week 33 of age, 5 of 6 non-treated mice (83%, cf. Table 2) were dead, whereas none of the mice treated with either peptide had died (0% each; see Table 2).\nAlso carried out was T cell vaccination against immunity to PAb-421. MRL/MpJ mice were immunized intradermally with 30 μg PAb-421 in complete Freund's adjuvant, followed by a boost in incomplete Freund's adjuvant. Cells derived from the draining lymph nodes, which were enriched for T cells reactive to PAb-421 and the p53 epitope peptide of PAb-421, were activated with 2 μg per ml Concanavalin A. Twelve week old MRL/MpJ-Fas^lpr mice were then injected intraperitoneally with 2×10^7 freshly activated and gamma-irradiated (2500 rad) cells per mouse. At 17 weeks of age, only 1 out of 8 treated mice […] developed severe proteinuria, while, in contrast, 6 out of 8 untreated control mice (75%) developed severe proteinuria. 421-TCV vs. not treated."}, "[2]": {"tested_on": "PAb-421", "test": "Reactivity of monoclonal antibodies IDI-1 and IDI-2 to PAb-421", "assay_type": "binding, mouse", "protocol": "(§1) FIG. 7 is a graph showing the reactivities of monoclonal antibodies IDI-1 and IDI-2, which were selected for idiotypic binding to PAb-421. […] The binding to single-stranded or double-stranded calf thymus DNA was assessed by ELISA after the DNA had been gamma-irradiated with the indicated dosages (0-10,000 rad).\nTo generate such antibodies, BALB/c mice were immunized with PAb-421 and selected hybridomas producing anti-idiotypic antibodies that bound PAb-421 and could also bind DNA were isolated.\n(§2) Two monoclonal antibodies, IDI-1 and IDI-2, could be isolated which had been selected for idiotypic binding to PAb-421 and their reactivities were determined. […] Thus, these two novel monoclonal antibodies of the present invention appear to mimic the DNA-binding specificity of p53. Thus, such antibodies could serve as models of the critical regulatory conformation of the carboxy-terminal domain of p53."}, "[3]": {"tested_on": "mouse antibodies other than PAb-421, like R73", "test": "Reactivity of IDI-1 and IDI-2 to control mouse antibodies", "assay_type": "binding", "settings": "control mAb", "protocol": "as §1, §2"}, "[4]": {"tested_on": "single-stranded or double-stranded calf thymus DNA", "test": "ELISA binding of IDI-1 and IDI-2 to calf thymus DNA, with or without gamma-irradiation", "settings": "for change of binding to single-stranded DNA after gamma-irradiation of the DNA: 0-10,000 rad, depending on the radiation dose; for reactivity to DNA (FIG. 7): single-stranded or double-stranded DNA", "protocol": "as §1\nFor anti-DNA ELISA, a secondary antibody conjugated to horseradish peroxidase, and as substrate 1 mg/ml ABTS in 0.2 M citric acid, 0.2 M Na2HP04, and 3% H202 (all from Sigma) was used. The test antigens used were (Fab) 2 fragments of Ab2 anti-PAb-421, which were prepared as described (Harlow et al, 1988), recombinant p53, the p53 peptide epitope of PAb-421, histones or, after pre-coating with methylated BSA, calf thymus DNA (all from Sigma). All antibody titers are shown as the O. D. produced by the test sera at a dilution of 1:100. Dots represent individual sera, bars represent the median of each group.\nas §2"}, "[5]": {"tested_on": "single-stranded homooligomers (20-mers) of dG, dA, dC and dT", "test": "Band-shift assay with single-stranded homooligomers", "assay_type": "binding", "settings": "preliminary studies", "source_text": "Preliminary studies were done to define the oligonucleotide motifs recognized by IDI-1 and IDI-2 and to test whether p53 itself might bind the same oligonucleotide. Single-stranded homooligomers (20-mers) of dG, dA, dC and dT were used. […] Thus, dG is an important ligand for the anti-DNA monoclonal antibodies and for p53 itself. This further supports the presumptions that IDI-1 and IDI-2 mimic the carboxy terminal conformation of p53. In fact, the binding of the antibody to oligo dG is evidence that the antibody actually mimics the C-terminal domain of p53."}},
  "data": [
    {"molecule": "421-Epitope: p53 peptide SYLKTKKGQSTSRHKKTMVK, residues 364-383 of SEQ ID NO:1, carboxy terminal domain of p53 (listed as Mus sp.)", "values": [
      {"measurement": "death by week 33 of age, mice dead/treated", "setting": "[1]; peptides 100 μg i.p. in PBS at weeks 12, 18, 24", "result": "0/6"},
      {"measurement": "heavy proteinuria, ^33 g/l (+++) at week 17 of age, mice affected/treated", "setting": "[1]", "result": "2/5"},
      {"measurement": "heavy proteinuria, ^33 g/l (+++) at week 17 of age, mice affected/treated", "setting": "[1]; listed as 421-epitope", "result": "2 out of 5"},
      {"measurement": "death by week 33 of age, percent of mice", "setting": "[1]", "result": "(0%)"},
      {"measurement": "heavy proteinuria, ^33 g/l (+++) at week 17 of age, percent of mice", "setting": "[1]", "result": "(33%)"},
      {"measurement": "death by week 33 of age, percent of mice", "setting": "[1]; listed as 421-epitope", "result": 0, "unit": "%"},
      {"measurement": "heavy proteinuria, ^33 g/l (+++) at week 17 of age, percent of mice", "setting": "[1]; listed as 421-epitope", "result": 40, "unit": "%"}
    ]},
    {"molecule": "B1", "values": [
      {"measurement": "reactivity to PAb-421 (FIG. 7)", "setting": "[2]", "result": "specific reactivity"},
      {"measurement": "reactivity to mouse antibodies other than PAb-421", "setting": "[3]", "result": "No reactivity"},
      {"measurement": "change of binding to single-stranded DNA after gamma-irradiation of the DNA", "setting": "[4]", "result": "markedly enhanced"},
      {"measurement": "reactivity to DNA (FIG. 7)", "setting": "[4]", "result": "specific reactivity"},
      {"measurement": "binding to homooligomers in band-shift assay", "setting": "[5]", "result": "bound to the dG oligomer better than they did the others"}
    ]},
    {"molecule": "B2", "values": [
      {"measurement": "binding to homooligomers in band-shift assay", "setting": "[5]", "result": "bound to the dG oligomer better than they did the others"}
    ]},
    {"molecule": "B3", "values": [
      {"measurement": "reactivity to PAb-421 (FIG. 7)", "setting": "[2]", "result": "specific reactivity"},
      {"measurement": "reactivity to mouse antibodies other than PAb-421", "setting": "[3]", "result": "No reactivity"},
      {"measurement": "change of binding to single-stranded DNA after gamma-irradiation of the DNA", "setting": "[4]", "result": "somewhat less"},
      {"measurement": "reactivity to DNA (FIG. 7)", "setting": "[4]", "result": "specific reactivity"},
      {"measurement": "binding to homooligomers in band-shift assay", "setting": "[5]", "result": "bound to the dG oligomer better than they did the others"}
    ]}
  ]
}
